Earlier results on one substance are cited in publication PMC4519920.

Broadly, the pKd is the negative decadic logarithm of the Kd, by convention in mol/L.

The data set concerns the target hsp70 (UniProt P0DMV8).

pKd: −log10 of the molar value.

Sequence of UniProt P0DMV8 (P0DMV8 2-641): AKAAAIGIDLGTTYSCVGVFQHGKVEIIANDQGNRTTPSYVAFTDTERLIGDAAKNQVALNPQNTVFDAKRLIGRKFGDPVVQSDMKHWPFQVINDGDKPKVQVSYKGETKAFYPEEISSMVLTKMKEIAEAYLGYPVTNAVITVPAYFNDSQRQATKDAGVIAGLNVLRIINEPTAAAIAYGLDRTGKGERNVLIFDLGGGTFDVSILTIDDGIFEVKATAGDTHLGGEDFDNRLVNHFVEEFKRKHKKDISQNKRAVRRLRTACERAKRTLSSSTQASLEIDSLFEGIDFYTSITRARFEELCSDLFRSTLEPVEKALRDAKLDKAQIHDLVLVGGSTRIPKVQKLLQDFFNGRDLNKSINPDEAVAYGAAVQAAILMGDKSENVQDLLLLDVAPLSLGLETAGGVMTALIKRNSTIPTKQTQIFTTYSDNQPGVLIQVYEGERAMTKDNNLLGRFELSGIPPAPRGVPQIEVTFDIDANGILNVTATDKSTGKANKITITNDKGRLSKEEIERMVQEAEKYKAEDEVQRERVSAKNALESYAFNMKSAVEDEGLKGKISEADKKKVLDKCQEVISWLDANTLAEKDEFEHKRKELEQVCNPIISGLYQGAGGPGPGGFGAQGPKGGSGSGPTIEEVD

For the substance “Nucleoprotein NTAIL Box2 (from UniProt P35972)”, the pKd was 8.00.
